Reference: patent publication US20230365667A1 (Merck Sharp & Dohme, published 2023)
Substitutions are numbered along the chain they refer to. Blank lines part the entries; values can stand above or below the binder they belong to.

Molecular target: T1, Abeta peptide (40-amino acid Abeta peptide, SEQ ID NO: 1), biotinylated (human, N-terminal biotin or C-terminal lysine-linked biotin, separated from the peptide by a PEG6 linker)
T1 construct: Synthesized by Genscript; also called amyloid beta; test peptide
Experiment: BLI (Octet HTX), biotinylated Abeta on streptavidin sensors, 1 uM VHH, 1:1 fit
Description: Binding affinity was measured using Biolayer Interferometry (BLI) with a ForteBio Octet HTX instrument. Biotinylated antigen was loaded onto streptavidin biosensors at a concentration of 100 nM in kinetics buffer (PBS+1% BSA). The binding experiments were performed with the following steps: 1) baseline in kinetics buffer for 30 seconds, 2) loading of antigen for 180 seconds, to achieve a loading response of at least 1 nm, 3) baseline for 60 seconds, 4) association of 1 μM VHH for 300 seconds, and 5) dissociation into kinetics buffer for 180 seconds. Curves were fit to a 1:1 binding model using the ForteBio software. A negative control was included in all plates, which was un-transfected mammalian cells subjected to the same purification process, to account for the effect of any carryover protein contaminants from cell culture.

T1 sequence (peptide, as listed by the source): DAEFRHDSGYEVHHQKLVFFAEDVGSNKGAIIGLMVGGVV

Kd: 367 nM
koff: 0.00268 s⁻¹
kon: 7320 M⁻¹ s⁻¹
B1: vhhLib01-34 (VHH)
VHH: QVQLVESGGGLVQPGGSLRLSCAASGSIFSVNRMGWYRQAPGKQRELVAAIISGGATNYADSVKGRFTISRDNAKNTVYLQMNSLKPEDTAVYYCARRPAPNGRYHSWYAFDYWGQGTLVTVSS
notes: The entry as printed includes HHHHHH

Kd: 185 nM
koff: 0.00324 s⁻¹
kon: 17500 M⁻¹ s⁻¹
B2: vhhLib01-75 (VHH)
VHH: QVQLVESGGGLVQPGGSLRLSCAASGSIFSSNRMGWYRQAPGKQRELVAAIFSGGHTNYADSVKGRFTISRDNAKNTVYLQMNSLKPEDTAVYYCARPVDWSGPFDIWGQGTLVTVSS
notes: as for B1

Kd: 264 nM
koff: 0.0045 s⁻¹
kon: 17000 M⁻¹ s⁻¹
B3: vhhLib01-58 (VHH)
VHH: QVQLVESGGGLVQPGGSLRLSCAASGSIFSPNHMGWYRQAPGKQRELVAAIYSGGTTNYADSVKGRFTISRDNAKNTVYLQMNSLKPEDTAVYYCARRTFLRGWSGYLPWFDVWGQGTLVTVSS
notes: as for B1

Kd: 43.1 nM
koff: 0.00046 s⁻¹
kon: 10700 M⁻¹ s⁻¹
B4: vhhLib02-91 (VHH)
VHH: EVQLVESGGGLVQPGGSLRLSCAASGFTVSDYHMSWYRQAPGKQRELVSVILSGGRTYYADSVKGRFTISRDNSKNTLYLQMNSLRAEDTAVYYCARADAIFPWFDVWGQGTLVTVSS
notes: The entry as printed includes HHHHHH; also called 09BHK

Kd: 469 nM
koff: 0.00314 s⁻¹
kon: 6700 M⁻¹ s⁻¹
B5: vhhLib02-93 (VHH)
VHH: EVQLVESGGGLVQPGGSLRLSCAASGFTFSDYHMSWYRQAPGKQREPVSVINSGGYTYYADSVKGRFTISRDNSKNTLYLQMNSLRAEDTAVYYCARAQAAHYLYGYFDIWGQGTLVTVSS
notes: as for B1

Kd: 116 nM
koff: 0.000734 s⁻¹
kon: 6320 M⁻¹ s⁻¹
B6: vhhLib01-49 (VHH)
VHH: QVQLVESGGGLVQPGGSLRLSCAASGSIFSHNTMGWYRQAPGKQRELVAAINSGGSTNYADSVKGRFTISRDNAKNTVYLQMNSLKPEDTAVYYCARYIQTYTWGYFDYWGQGTLVTVSS
notes: as for B1

Kd: 5.3 nM
koff: 6.73e-05 s⁻¹
kon: 12600 M⁻¹ s⁻¹
B7: vhhLib05-49 (VHH)
VHH: EVQLLESGGGLVQPGGSLRLSCAASGFTFSSYAMSWVRQAPGKQREWVSAISGSGGSTYYADSVKGRFTISRDNSKNTLYLQMNSLRAEDTAVYYCARDTNQPYHGRYVYTYDFDVWGQGTLVTVSS
notes: also called 20BHK

Kd: 104 nM
koff: 0.00111 s⁻¹
kon: 10700 M⁻¹ s⁻¹
B8: vhhLib05-21 (VHH)
VHH: EVQLLESGGGLVQPGGSLRLSCAASGFTFSNYAMSWVRQAPGKQREWVSVISGNGSSTYYADSVKGRFTISRDNSKNTLYLQMNSLRAEDTAVYYCARLVQLPWVPISAFDVWGQGTLVTVSS
notes: The entry as printed includes a doubled TLVTVSS and HHHHHH; also called 16BHK

Kd: 244 nM
koff: 0.000724 s⁻¹
kon: 2970 M⁻¹ s⁻¹
B9: vhhLib02-21 (VHH)
VHH: EVQLVESGGGLVQPGGSLRLSCAASGFTFSLYTMSWYRQAPGKQRELVSAISSGGSTYYADSVKGRFTISRDNSKNTLYLQMNSLRAEDTAVYYCARYDYSWWYFDLWGQGTLVTVSS
notes: as for B1

Kd: 212 nM
koff: 0.00632 s⁻¹
kon: 29800 M⁻¹ s⁻¹
B10: vhhLib01-2 (VHH)
VHH: QVQLVESGGGLVQPGGSLRLSCAASGSIFSANHMGWYRQAPGKQRELVAAISSGGLTNYADSVKGRFTISRDNAKNTVYLQMNSLKPEDTAVYYCARHQTKIYNLHYYYFDYWGQGTLVTVSS
notes: as for B1

Kd: 25.4 nM
koff: 0.000269 s⁻¹
kon: 10600 M⁻¹ s⁻¹
B11: vhhLib05-8 (VHH)
VHH: EVQLLESGGGLVQPGGSLRLSCAASGFTFSSYAMSWVRQAPGKQREWVSAISGSGGRTYYADSVKGRFTISRDNSKNTLYLQMNSLRAEDTAVYYCARHSIPVDGIVAFDHWGQGTLVTVSS
notes: The entry as printed includes a doubled TLVTVSS and HHHHHH; also called 13BHK

Kd: 176 nM
koff: 0.00127 s⁻¹
kon: 7170 M⁻¹ s⁻¹
B12: vhhLib05-10 (VHH)
VHH: B11 VHH with R57S, H99V, S100V, I101K, P102V, V103D, G105I, I106V, V107H, H111I
notes: The entry as printed includes a doubled TLVTVSS and HHHHHH

Kd: 328 nM
koff: 0.00105 s⁻¹
kon: 3210 M⁻¹ s⁻¹
B13: vhhLib02-37 (VHH)
VHH: EVQLVESGGGLVQPGGSLRLSCAASGFTFSDYVMSWYRQAPGKQRELVSAIISGEDTYYADSVKGRFTISRDNSKNTLYLQMNSLRAEDTAVYYCARYVHKSTWYYFDHWGQGTLVTVSS
notes: The entry as printed includes HHHHHH; also called vhbLib02-37

Kd: 430 nM
koff: 0.0033 s⁻¹
kon: 7670 M⁻¹ s⁻¹
B14: vhhLib01-86 (VHH)
VHH: QVQLVESGGGLVQPGGSLRLSCAASGSIFSANHMGWYRQAPGKQRELVAAILSGGVTNYADSVKGRFTISRDNAKNTVYLQMNSLKPEDTAVYYCARGQVDTKYGYYYFDSWGQGTLVTVSS
notes: The entry as printed includes a doubled TLVTVSS and HHHHHH; also called vhbLib01-86

Kd: 210 nM
koff: 0.0029 s⁻¹
kon: 13800 M⁻¹ s⁻¹
B15: vhhLib02-64 (VHH)
VHH: EVQLVESGGGLVQPGGSLRLSCAASGFTFSGYFMSWYRQAPGKQRELVSVINSGGSTYYADSVKGRFTISRDNSKNTLYLQMNSLRAEDTAVYYCARGRVATGGGYGFVHYFDVWGQGTLVTVSS
notes: as for B1

Kd: 292 nM
koff: 0.00112 s⁻¹
kon: 3830 M⁻¹ s⁻¹
B16: vhhLib05-83 (VHH)
VHH: EVQLLESGGGLVQPGGSLRLSCAASGFTFSNYAMSWVRQAPGKQREWVSAISGSGGSTYYADSVKGRFTISRDNSKNTLYLQMNSLRAEDTAVYYCARLFLQQADGLYYYYAFDPWGQGTPVTVSS
notes: The entry as printed includes a doubled TLVTVSS-like stretch and HHHHHH

Kd: 23.9 nM
koff: 0.000337 s⁻¹
kon: 14100 M⁻¹ s⁻¹
B17: vhhLib05-25 (VHH)
VHH: EVQLLESGGGLVQPGGSLRLSCAASGFTFSSYAMSWVRQAPGKQREWVSAISGSGGSTYYADSVKGRFTISRDNSKNTLYLQMNSLRAEDTAVYYCARHRQADGITYFDIWGQGTLVTVSS
notes: as for B12

Kd: 39.9 nM
koff: 0.000443 s⁻¹
kon: 11100 M⁻¹ s⁻¹
B18: vhhLib05-14 (VHH)
VHH: B17 VHH with H99L, R100S, Q101I, A102V, G104V, I105V, Y107V, I110V
notes: as for B12

Kd: 189 nM
koff: 0.000882 s⁻¹
kon: 4660 M⁻¹ s⁻¹
B19: vhhLib05-5 (VHH)
VHH: B17 VHH with H99L, R100D, Q101Y, A102T, T106N, I110Y
notes: as for B12

Kd: 153 nM
koff: 0.00333 s⁻¹
kon: 21800 M⁻¹ s⁻¹
B20: vhhLib01-48 (VHH)
VHH: QVQLVESGGGLVQPGGSLRLSCAASGSIFSANIMGWYRQAPGKQRELVAAIVSGGYTNYADSVKGRFTISRDNAKNTVYLQMNSLKPEDTAVYYCARDQDAFDHVGQYFDHWGQGTLVTVSS
notes: as for B1

Kd: 249 nM
koff: 0.0137 s⁻¹
kon: 55000 M⁻¹ s⁻¹
B21: vhhLib02-26 (VHH)
VHH: EVQLVESGGGLVQPGGSLRLSCAASGFTFSAYIMSWYRQAPGKQRELVGAIVSGGLTYYADSVKGRFTISRDNSKNTLYLQMNSLRAEDTAVYYCARHWRWYDSNLVFDLWGQGTLVTVSS
notes: as for B1

Kd: 239 nM
koff: 0.00353 s⁻¹
kon: 14800 M⁻¹ s⁻¹
B22: vhhLib01-3 (VHH)
VHH: QVQLVESGGGLVQPGGSLRLSCAASGSIFSFNLMGWYRQAPGKQRELVAAINSGGSTNYADSVKGRFTISRDNAKNTVYLQMNSLKPEDTAVYYCARDYTVYVSYYDGRFDYWGQGTLVTVSS
notes: as for B1

Kd: 42.6 nM
koff: 0.000447 s⁻¹
kon: 10500 M⁻¹ s⁻¹
B23: vhhLib02-53 (VHH)
VHH: EVQLVESGGGLVQPGGSLRLSCAASGFTFSRYLMSWYRQAPGKQRELVGAIASGGVTYYADSVKGRFTISRDNSKNTLYLQMNSLRAEDTAVYYCARGNPSERLYYYFDYWGQGTLVTVSS
notes: The entry as printed includes HHHHHH; also called 06BHK

Kd: 633 nM
koff: 0.00297 s⁻¹
kon: 4680 M⁻¹ s⁻¹
B24: vhhLib05-33 (VHH)
VHH: EVQLLESGGGLVQPGGSLRLSCAASGFTFSSYAMSWVRQAPGKQREWVSAISGSGGSTYYADSVKGRFTISRDNSKNTLYLQMNSLRAEDTAVYYCARLQGVQSDEVYYNYFDVWGQGTLVTVSS
notes: The entry as printed includes a doubled TLVTVSS and HHHHHH; also called vhbLib05-33

Kd: 214 nM
koff: 0.00133 s⁻¹
kon: 6200 M⁻¹ s⁻¹
B25: vhhLib05-78 (VHH)
VHH: B24 VHH with S35T, Q100A, G101T, V102H, Q103V, S104D, D105N, E106G, V107L, Y108G
notes: as for B12

Kd: 114 nM
koff: 0.000725 s⁻¹
kon: 6370 M⁻¹ s⁻¹
B26: vhhLib05-28 (VHH)
VHH: B24 VHH with S25A, Q100S, G101H, V102N, Q103S, S104Q, D105G, E106T, Y108V, V114I
notes: as for B12
